Assay results reported in doi:10.1101/2023.05.09.540094.

Legend:
[1] = molecular target: human 26S proteasome (human | human (endogenous in HEK293)) (UniProt O00487)
[2] = molecular target: human 26S proteasome (human | human (endogenous in HEK293)) (UniProt O00487); remark: listed apart in the source
[3] = molecular target: human 26S proteasome (human | human (endogenous in HEK293)) (UniProt O00487); assay: single-molecule TIRF microscopy

Row | Binder | increase of the initial (phase I) degradation rate of ubiquitylated cycB-cpGFP [1] [%] | increase of the late (phase II) degradation rate of ubiquitylated cycB-cpGFP [1] [%] | stimulation of peptide hydrolysis of purified 26S proteasome [2] [fold] | dwell-time constant, first (short-binding) exponential mode [3] [ms] | dwell-time constant, second (long-binding) exponential mode [3] [ms]
1 | ZFAND5/ZNF216, recombinant wild type (natural protein) MAQETNQTPGPMLCSTGCGFYGNPRTNGMCSVCYKEHLQRQQNSGRMSPMGTASGSNSPTSDSASVQRADTSLNNCEGAAGSTSEKSRNVPVAALPVTQQMTEMSISREDKITTPKTEVSEPVVTQPSPSVSQPSTSQSEEKAPELPKPKKNRCFMCRKKVGLTGFDCRCGNLFCGLHRYSDKHNCPYDYKAEAAAKIRKENPVVVAEKIQRI | 24 | 71 | < 10 |  | 
2 | His6-SNAP-ZFAND5wt (natural protein, SNAP tag labelled with SNAP-Surface 649 (fluorescent form) or with SNAP-Biotin (immobilised form)) MAQETNQTPGPMLCSTGCGFYGNPRTNGMCSVCYKEHLQRQQNSGRMSPMGTASGSNSPTSDSASVQRADTSLNNCEGAAGSTSEKSRNVPVAALPVTQQMTEMSISREDKITTPKTEVSEPVVTQPSPSVSQPSTSQSEEKAPELPKPKKNRCFMCRKKVGLTGFDCRCGNLFCGLHRYSDKHNCPYDYKAEAAAKIRKENPVVVAEKIQRI |  |  |  | 50 | 614
